Numbering of substitutions follows the chain as printed.
B1: CD3-VH-G: anti-CD3 antibody engineered from CD3-VH-P to contain only germline frameworks, HCVR SEQ ID NO: 1730 (antibody, V domains shown)
VH: EVQLVESGGGLVQPGRSLRLSCAASGFTFDDYSMHWVRQAPGKGLEWVSGISWNSGSKGYADSVKGRFTISRDNAKNSLYLQMNSLRAEDTALYYCAKYGSGYGKFYHYGLDVWGQGTTVTVSS
VL: DIQMTQSPSSLSASVGDSVTITCRASQSINNYLNWYQQKPGKAPKLLIYTASSLLSGVPSRFSGSGSGTDFTLTISGLHPEDFATYFCQQSFSTPPITFGQGTRLDIK
B2: BSSTEAP2/CD3-011: STEAP2×CD3 bispecific: anti-STEAP2 H1H7809N (SEQ 330), anti-CD3 H1H7203P (SEQ 1474), common LCVR of H1H7809N (antibody, V domains shown)
VH 1: QVQLVESGGGVVQPGRSLGLSCAASGFTFSSYGMHWVRQAPGKGLEWVAVIWYDGSNKYYVDSVKGRFTISRDNSKNTLYLQMNSLRAEDTAVYYCAREGLRFLENYYYYYGMDVWGQGTTVTVSS
VH 2: EVQLVQSGGGLVQPGRSLRLSCAASGFTFADYTMHWVRQTPGKGLEWVSGISWNSGSKDYADSVKGRFTISRDNAKNSLYLQMNSLRTEDTALYYCAKYGSGYGRYFFYAMDVWGQGTTVTVSS
VL: EIVLTQSPGTLSLSPGERATLSCRASQSISSTYLAWYQQRPGQAPRLLIYGASSRATGIPDRFSGSGSGTDFTLTISRLEPEDFAVYYCQQYGTSPYTFGQGTKLEIK
B3: BSSTEAP2/CD3-010: STEAP2×CD3 bispecific: anti-STEAP2 H1H7809N (SEQ 330), anti-CD3 H1H7198P (SEQ 1466), common LCVR of H1H7809N (antibody, V domains shown)
VH 1: B2 VH 1
VH 2: B2 VH 2 with Q6E, T40V, G50D, S78F, T88A, A97V, R105K, Y106F, F107Y
VL: B2 VL

Experiments:
human CD3 (Jurkat cells) = assay: FACS titration of anti-CD3 antibodies on Jurkat cells; assay type: binding; conditions: anti-CD3 antibody
Text: See, e.g. FACS binding experiments outlined in Example 12 and in PCT/US2016/044732 filed Jul. 29, 2016.

[1] = system: PC3_STEAP2/1 cells (PC3 engineered to express a STEAP2/1 chimeric construct); assay: FACS binding titration of STEAP2xCD3 bispecifics on PC3_STEAP2/1 cells; design: species or system human; conditions: 66.6 nM to 0.001 nM, 30 minutes at 4° C.
Description: (§1) FACS Binding Titration on Jurkat Cells, PC3_STEAP2/1 Cells and cynomolgus T Cells: Flow cytometric analysis was utilized to determine binding of STEAP2×CD3 bispecific antibodies to Jurkat, PC3_STEAP2/1 chimeric and cynomolgus T cells, followed by detection with a phycoerythrin (PE)-labeled anti-human IgG antibody. Briefly, 2×10^5 cells/well were incubated for 30 minutes at 4° C. with a serial dilution of STEAP2×CD3 bispecific antibodies or control antibody (a human IgG1 antibody that binds a feline antigen with no cross-reactivity to STEAP2 or human or cynomolgus CD3) ranging from 66.6 nM to 0.001 nM. After incubation, the cells were washed twice with cold PBS containing 1% filtered FBS and a PE-conjugated anti-human secondary antibody was added to the cells and incubated for an additional 30 minutes. Wells containing no antibody or secondary antibody only were used as a control. After incubation, cells were washed, re-suspended in 200 μL cold PBS containing 1% filtered FBS and analyzed by flow cytometry on a BD FACS Canto II.

monkey PBMCs = assay: T cell proliferation assay, cynomolgus PBMC; assay type: cell-based; conditions: donor mk8781M; anti-CD28 500 ng/mL, 72 hours; read-out: Cyno PBMC Proliferation [M] (donor)
Description: (§2) Thawed human or freshly isolated monkey PBMCs (50,000 cells/well) were incubated with 3-fold (human, concentration range: 5E-10M to 2.82E-15M; cynomolgus, concentration range: 1E-09M to 4.57E-13M) serial dilutions of STEAP2×CD3 bispecifics or isotype control in complete medium (RPMI supplemented with 10% FBS, 100 U/mL penicillin, 100 μg/mL streptomycin, 292 μg/mL L-glutamine) and a fixed concentration (human: 200 ng/mL, cyno: 500 ng/mL) of a commercial anti-CD28 antibody (Biolegend, Catalog #302914) in white flat bottom 96-well plates for 72 hours at 37° C. Isolated monkey PBMCs were from two donors (identified as mk8781M or mk9381M). Following incubation, CellTiter Glo® (Promega, Cat #7573) was added and luminescence, as readout for cell viability, was measured using a VICTOR X5 multi-label plate reader. Cell titer was calculated by dividing the luminescence of stimulated cells by the baseline luminescence of unstimulated cells.

cynomolgus T cells = assay: FACS binding titration of STEAP2xCD3 bispecifics on cynomolgus T cells; conditions: 66.6 nM to 0.001 nM, 30 minutes at 4° C.
Description: as §1

human PBMCs = assay: T cell proliferation assay, human PBMC; assay type: cell-based; conditions: with anti-CD28 200 ng/mL, 72 hours; read-out: hPBMC Proliferation [M] (EC50)
Description: as §2
All αSTEAP2×αCD3 bispecific antibodies induce human PBMC proliferation in the presence of a co-stimulatory anti-CD28 antibody (See Table 20 and FIG. 9). PBMCs were incubated with a serial dilution of bispecific antibodies or the control antibody and a fixed concentration of anti-CD28 for 72 hours, and cell viability was measured in a luminescence assay to detect live cells. […]

[2] = system: Jurkat cells (express human CD3); assay: FACS binding titration of STEAP2xCD3 bispecifics on Jurkat cells; conditions: 66.6 nM to 0.001 nM, 30 minutes at 4° C.
Description: as §1

| Molecule | EC50, FACS titration of Jurkat cells (human CD3) (human CD3 (Jurkat cells)) | FACS PC3_STEAP2/1 EC50 [M] [1] | EC50 (monkey PBMCs) | Cynomolgus T cells EC50 [M] (cynomolgus T cells) | EC50 (human PBMCs) | EC50 [2] |
| --- | --- | --- | --- | --- | --- | --- |
| B1 | retained their binding affinity | – | – | – | – | – |
| B2 | – | No Binding | 3.6e-12 M | No Binding | – | – |
| B3 | – | No Binding | – | Very Weak | 6.55e-12 M | 13600 pM |

From patent publication US10772972B2, “Anti-STEAP2 antibody drug conjugates, and compositions and uses thereof” (Regeneron Pharmaceuticals, Inc., priority 2016, dated 2020)
